Experimental data published in article PMC6568020, “Elucidating the Hot Spot Residues of Quorum Sensing Peptidic Autoinducer PapR by Multiple Amino Acid Replacements” (Frontiers in Microbiology, 2019).

What was measured:
[1] = target: PlcR of B. cereus ATCC 14579 (B. cereus (endogenous in strain ATCC 14579))
[2] = target: PlcR of B. thuringiensis 407 Cry- (B. thuringiensis (endogenous in strain 407 Cry- plcA'Z))
[3] = target: PlcR of B. cereus ATCC 14579 (B. cereus (endogenous in strain ATCC 14579)); remark: listed apart in the source
[4] = target: PlcR of B. thuringiensis 407 Cry- (B. thuringiensis (endogenous in strain 407 Cry- plcA'Z)); remark: listed apart in the source
[5] = target: PlcR of B. cereus ATCC 14579 (B. cereus (endogenous in strain ATCC 14579)); remark: listed apart in the source
[6] = target: PlcR of B. thuringiensis 407 Cry- (B. thuringiensis (endogenous in strain 407 Cry- plcA'Z)); remark: listed apart in the source

PapR7-P4A (peptide)
IC50 of inhibition of the hemolytic activity (human red blood cells) of supernatants of treated B. cereus ATCC 14579 cultures; the pair that is blocked: native PapR with PlcR [1]: 4.39 µM

PapR7-P4A:F7A (peptide)
reduction of plcA'Z (β-galactosidase) activity in Bt A'Z cells, 2.5 μM peptide added at late-exponential phase; the pair that is blocked: endogenous PapR with PlcR [2]: 40%
reduction of the hemolytic activity (human red blood cells) of supernatants of B. cereus ATCC 14579 cultures treated with 10 μM peptide; the pair that is blocked: native PapR with PlcR [3]: 60%

PapR7-P4A:dE6 (peptide)
reduction of plcA'Z (β-galactosidase) activity in Bt A'Z cells, 2.5 μM peptide added at late-exponential phase; the pair that is blocked: endogenous PapR with PlcR [2]: 40%

PapR7-P4A:dE6:F7A (peptide)
IC50 of inhibition of the hemolytic activity (human red blood cells) of supernatants of treated B. cereus ATCC 14579 cultures; the pair that is blocked: native PapR with PlcR [1]: 1.99 µM
reduction of plcA'Z (β-galactosidase) activity in Bt A'Z cells, 2.5 μM peptide added at late-exponential phase; the pair that is blocked: endogenous PapR with PlcR [2]: 40%
reduction of plcA'Z (β-galactosidase) activity in Bt A'Z cells, 10 μM peptide added at end of lag phase (OD600 0.1); the pair that is blocked: endogenous PapR with PlcR [4]: 75%

PapR7-P4A:dE6:dF7 (peptide)
IC50 of inhibition of the hemolytic activity (human red blood cells) of supernatants of treated B. cereus ATCC 14579 cultures; the pair that is blocked: native PapR with PlcR [1]: 2.14 µM
reduction of plcA'Z (β-galactosidase) activity in Bt A'Z cells, 2.5 μM peptide added at late-exponential phase; the pair that is blocked: endogenous PapR with PlcR [2]: 40%
reduction of plcA'Z (β-galactosidase) activity in Bt A'Z cells, 10 μM peptide added at end of lag phase (OD600 0.1); the pair that is blocked: endogenous PapR with PlcR [4]: 75%

PapR7-P4A:dF7 (peptide)
reduction of plcA'Z (β-galactosidase) activity in Bt A'Z cells, 2.5 μM peptide added at late-exponential phase; the pair that is blocked: endogenous PapR with PlcR [2]: 40%
inhibition of the hemolytic activity (human red blood cells) of supernatants of B. cereus ATCC 14579 cultures treated with 10 μM peptide; the pair that is blocked: native PapR with PlcR [5]: 83%

PapR7-dE6 (peptide)
IC50 of inhibition of plcA'Z (β-galactosidase) activity in Bt A'Z cells, lacZ-based reporter assay; the pair that is blocked: endogenous PapR with PlcR [6]: 0.977 µM
IC50 of inhibition of the hemolytic activity (human red blood cells) of supernatants of treated B. cereus ATCC 14579 cultures; the pair that is blocked: native PapR with PlcR [1]: 1.05 µM
reduction of plcA'Z (β-galactosidase) activity in Bt A'Z cells, 2.5 μM peptide added at late-exponential phase; the pair that is blocked: endogenous PapR with PlcR [2]: 65%

PapR7-dE6:F7A (peptide)
IC50 of inhibition of plcA'Z (β-galactosidase) activity in Bt A'Z cells, lacZ-based reporter assay, late-exponential phase; the pair that is blocked: endogenous PapR with PlcR [6]: 2.57 µM
IC50 of inhibition of the hemolytic activity (human red blood cells) of supernatants of treated B. cereus ATCC 14579 cultures; the pair that is blocked: native PapR with PlcR [1]: 2.5 µM
reduction of plcA'Z (β-galactosidase) activity in Bt A'Z cells, 2.5 μM peptide added at late-exponential phase; the pair that is blocked: endogenous PapR with PlcR [2]: 65%

PapR7-dE6:dF7 (peptide)
IC50 of inhibition of plcA'Z (β-galactosidase) activity in Bt A'Z cells, lacZ-based reporter assay, late-exponential phase; the pair that is blocked: endogenous PapR with PlcR [6]: 1.68 µM
IC50 of inhibition of the hemolytic activity (human red blood cells) of supernatants of treated B. cereus ATCC 14579 cultures; the pair that is blocked: native PapR with PlcR [1]: 1.38 µM
reduction of plcA'Z (β-galactosidase) activity in Bt A'Z cells, 2.5 μM peptide added at late-exponential phase; the pair that is blocked: endogenous PapR with PlcR [2]: 71%

PapR7-dF7 (peptide)
IC50 of inhibition of plcA'Z (β-galactosidase) activity in Bt A'Z cells, lacZ-based reporter assay; the pair that is blocked: endogenous PapR with PlcR [6]: 1.22 µM
IC50 of inhibition of the hemolytic activity (human red blood cells) of supernatants of treated B. cereus ATCC 14579 cultures; the pair that is blocked: native PapR with PlcR [1]: 3.04 µM
reduction of plcA'Z (β-galactosidase) activity in Bt A'Z cells, 2.5 μM peptide added at late-exponential phase; the pair that is blocked: endogenous PapR with PlcR [2]: 63%
